Tests used:
human C5L2 (human) [1] = molecular target: human C5L2 (human) (UniProt Q9P296); assay: flow cytometry, binding/uptake of FLUOS-ASP on HEK 293 cells transiently transfected with C5L2, 30 min at 37 C
human C5L2 (human) [2] = molecular target: human C5L2 (human) (UniProt Q9P296); assay: competition with 50 pM 125I-C5a on C5L2-transfected RBL cells, 4 C
human C5L2 (human) [3] = molecular target: human C5L2 (human) (UniProt Q9P296); assay: competition with 50 pM 125I-C3a on C5L2-transfected RBL cells, 4 C

Chain of recombinant C3a des-Arg^77, P01024 672-747 (ligand; other documents disagree on this pair) (P01024 672-747 limits assumed): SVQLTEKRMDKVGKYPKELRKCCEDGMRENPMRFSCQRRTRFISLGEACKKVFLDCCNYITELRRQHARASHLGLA
Chain of human C5L2 (human) (Q9P296 whole entry): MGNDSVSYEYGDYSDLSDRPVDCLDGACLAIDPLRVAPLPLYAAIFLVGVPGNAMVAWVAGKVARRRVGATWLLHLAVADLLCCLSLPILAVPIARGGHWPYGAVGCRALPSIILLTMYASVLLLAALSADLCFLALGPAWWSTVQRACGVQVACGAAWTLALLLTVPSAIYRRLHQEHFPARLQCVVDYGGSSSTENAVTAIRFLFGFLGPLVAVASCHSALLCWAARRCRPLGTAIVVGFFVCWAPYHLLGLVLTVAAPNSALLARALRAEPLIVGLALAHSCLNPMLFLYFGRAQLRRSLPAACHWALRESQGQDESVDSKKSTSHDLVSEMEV
Chain of recombinant His6-tagged C3a, P01024 672-748 (ligand; other documents disagree on this pair) (P01024 672-748 limits assumed): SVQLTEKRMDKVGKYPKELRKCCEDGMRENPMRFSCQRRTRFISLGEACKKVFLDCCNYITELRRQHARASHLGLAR

Substance	EC50 (human C5L2 (human) [1]) [nM]	IC50 (human C5L2 (human) [2]) [nM]	pD2 (human C5L2 (human) [2])	IC50 (human C5L2 (human) [3]) [nM]	pD2 (human C5L2 (human) [3])
plasma ASP (C3a des-Arg^77), purified from human plasma, P01024 672-747 (ligand; FLUOS (fluorescein) label in the flow cytometry assays, ^125I label in one assay; labelled residues not stated; other documents disagree on this pair)	3	–	–	–	–
recombinant C3a des-Arg^77, P01024 672-747 (ligand; other documents disagree on this pair)	–	180000	4.73 -log IC50	526	6.24 -log IC50
recombinant His6-tagged C3a, P01024 672-748 (ligand; other documents disagree on this pair)	–	230000	4.64 -log IC50	167	6.78 -log IC50

Reference: US20060121462A1, “Receptor and screening methods” (priority 2003, published 2006)
